Measurements from US20170247475A1.

Assays:
mAng2 [1] = test: competition ELISA, blocking of mAng2 binding to mTie2
mAng2 [2] = test: competition ELISA, blocking of mAng2 binding to mTie2-Fc
hAng2 [3] = test: competition ELISA hAng2/hTie2-Fc; blocked: hTie2-Fc
mAng2 [4] = test: competition ELISA, blocking of mAng2 binding to mTie2; remark: listed apart in the source
hAng2 [5] = test: competition ELISA, blocking of hAng2 binding to hTie2
mAng2 [6] = test: competition ELISA mAng2/mTie2-Fc; blocked: mTie2-Fc
mAng2 [7] = test: as above; remark: listed apart in the source
hAng2 [8] = test: competition ELISA hAng2/hTie2-Fc; blocked: hTie2-Fc; remark: listed apart in the source
hAng2 [9] = test: competition ELISA, blocking of hAng2 binding to hTie2-Fc
hAng2 [10] = test: competition ELISA, blocking of hAng2 binding to hTie2; remark: listed apart in the source
hAng2 [11] = test: competition ELISA, blocking of hAng2 binding to hTie2-Fc; remark: listed apart in the source
hAng2 [12] = test: competition ELISA, blocking of hAng2 binding to hTie2; remark: listed apart in the source
[13] = biological target: cAng2 (cynomolgus monkey); test: competition ELISA, blocking of cAng2 binding to cTie2
[14] = biological target: cAng2 (cynomolgus monkey); test: as above; remark: listed apart in the source
[15] = biological target: cAng2 (cynomolgus monkey); test: competition ELISA, blocking of cAng2 binding to cTie2-Fc
mAng2 [16] = test: competition ELISA, blocking of mAng2 binding to mTie2; remark: listed apart in the source
[17] = biological target: cAng2 (cynomolgus monkey); test: competition ELISA, blocking of cAng2 binding to cTie2; remark: listed apart in the source
hAng2 [18] = test: competition ELISA hAng2/hTie2-Fc; blocked: hTie2-Fc; remark: listed apart in the source
hAng2 [19] = biological target: hAng2
hAng2 [20] = test: competition ELISA, blocking of hAng2 binding to hTie2-Fc; remark: listed apart in the source
[21] = biological target: mouse serum albumin (mouse) (UniProt P07724); test: SPR, albumin on chip, 1:1 interaction model
Chain of mouse serum albumin (mouse) (P07724 25-608 limits assumed): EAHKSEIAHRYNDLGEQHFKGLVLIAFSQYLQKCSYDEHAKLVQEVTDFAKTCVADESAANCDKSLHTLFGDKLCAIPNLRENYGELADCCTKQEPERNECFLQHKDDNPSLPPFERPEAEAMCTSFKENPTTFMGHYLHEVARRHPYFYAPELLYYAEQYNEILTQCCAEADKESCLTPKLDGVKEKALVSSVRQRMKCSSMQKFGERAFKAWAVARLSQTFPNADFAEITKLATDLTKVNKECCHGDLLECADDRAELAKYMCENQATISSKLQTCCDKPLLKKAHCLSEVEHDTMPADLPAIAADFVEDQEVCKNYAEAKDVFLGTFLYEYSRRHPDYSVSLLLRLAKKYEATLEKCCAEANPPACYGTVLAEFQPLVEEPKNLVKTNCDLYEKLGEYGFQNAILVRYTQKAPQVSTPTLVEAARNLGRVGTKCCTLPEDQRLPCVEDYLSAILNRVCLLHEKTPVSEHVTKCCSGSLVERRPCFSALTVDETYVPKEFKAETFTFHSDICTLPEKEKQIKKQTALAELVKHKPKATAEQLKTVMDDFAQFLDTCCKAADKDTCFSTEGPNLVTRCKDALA

[22] = biological target: human serum albumin (human) (UniProt P02768); test: SPR, albumin on chip, 1:1 interaction model
[23] = biological target: cyno serum albumin (cyno); test: SPR, albumin on chip, 1:1 interaction model
Chain of cyno serum albumin (cyno) (A2V9Z4 25-608): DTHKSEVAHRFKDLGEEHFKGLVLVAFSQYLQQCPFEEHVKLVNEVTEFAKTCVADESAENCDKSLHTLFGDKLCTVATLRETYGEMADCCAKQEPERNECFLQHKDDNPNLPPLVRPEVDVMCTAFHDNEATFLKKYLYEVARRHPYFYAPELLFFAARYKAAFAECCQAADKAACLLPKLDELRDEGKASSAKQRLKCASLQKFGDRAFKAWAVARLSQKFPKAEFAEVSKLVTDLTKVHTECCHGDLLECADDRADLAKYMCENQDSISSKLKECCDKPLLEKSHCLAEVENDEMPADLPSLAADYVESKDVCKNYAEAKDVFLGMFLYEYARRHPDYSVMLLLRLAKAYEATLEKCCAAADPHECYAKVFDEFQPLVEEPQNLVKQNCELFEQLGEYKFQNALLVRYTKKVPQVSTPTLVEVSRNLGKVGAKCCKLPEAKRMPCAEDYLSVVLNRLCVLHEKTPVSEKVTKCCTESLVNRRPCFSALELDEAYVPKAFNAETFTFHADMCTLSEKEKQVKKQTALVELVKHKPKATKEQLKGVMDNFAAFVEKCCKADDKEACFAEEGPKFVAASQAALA

[24] = biological target: mouse serum albumin (mouse) (UniProt P07724); test: SPR, albumin on CM5 chip, multicycle kinetics
[25] = biological target: human serum albumin (human) (UniProt P02768); test: SPR, albumin on CM5 chip, multicycle kinetics
[26] = biological target: cyno serum albumin (cyno); test: SPR, albumin on CM5 chip, multicycle kinetics

Chain of mAng2 (chain, as listed by the source limits assumed): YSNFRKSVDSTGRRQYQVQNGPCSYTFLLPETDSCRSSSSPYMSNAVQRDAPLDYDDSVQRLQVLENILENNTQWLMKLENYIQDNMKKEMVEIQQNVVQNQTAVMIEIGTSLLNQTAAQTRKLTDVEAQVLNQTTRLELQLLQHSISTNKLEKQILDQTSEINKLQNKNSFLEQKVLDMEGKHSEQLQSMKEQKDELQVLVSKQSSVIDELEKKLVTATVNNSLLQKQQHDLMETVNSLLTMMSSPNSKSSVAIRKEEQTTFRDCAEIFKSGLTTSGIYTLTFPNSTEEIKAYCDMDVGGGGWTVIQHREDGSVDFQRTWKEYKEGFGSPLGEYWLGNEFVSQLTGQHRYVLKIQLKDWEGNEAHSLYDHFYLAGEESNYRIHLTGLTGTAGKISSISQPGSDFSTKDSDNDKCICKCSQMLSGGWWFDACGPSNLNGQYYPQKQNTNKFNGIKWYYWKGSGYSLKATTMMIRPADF
Chain of hAng2 (chain, as listed by the source limits assumed): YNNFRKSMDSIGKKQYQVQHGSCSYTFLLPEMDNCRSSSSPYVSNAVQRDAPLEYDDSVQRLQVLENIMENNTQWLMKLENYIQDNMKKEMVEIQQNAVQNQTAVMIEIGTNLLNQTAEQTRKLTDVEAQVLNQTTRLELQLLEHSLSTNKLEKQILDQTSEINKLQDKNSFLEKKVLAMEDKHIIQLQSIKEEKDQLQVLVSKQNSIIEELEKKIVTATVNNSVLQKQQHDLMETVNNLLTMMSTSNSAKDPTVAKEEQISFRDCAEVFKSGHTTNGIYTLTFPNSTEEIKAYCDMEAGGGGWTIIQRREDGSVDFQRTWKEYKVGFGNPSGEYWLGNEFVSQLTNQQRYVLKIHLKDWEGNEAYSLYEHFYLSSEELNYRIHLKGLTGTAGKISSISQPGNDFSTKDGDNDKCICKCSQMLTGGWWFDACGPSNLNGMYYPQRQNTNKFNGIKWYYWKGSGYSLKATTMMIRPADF

AMG386
IC50 (read off the curve) (mAng2 [1]): 9 pM | IC50 (read off the curve) (mAng2 [2]): 2 pM | IC50 (read off the curve) (hAng2 [3]): 6 pM | IC50 (read off the curve) (mAng2 [4]): 1 pM | IC50 (read off the curve) (hAng2 [5]): 1 pM | IC50 (read off the curve) (mAng2 [6]): 6 pM | IC50 (read off the curve) (mAng2 [7]): 5 pM | IC50 (read off the curve) (hAng2 [8]): 4 pM | IC50 (read off the curve) (hAng2 [9]): 2 pM | IC50 (read off the curve) (hAng2 [10]): 3 pM | IC50 (read off the curve) (hAng2 [11]): 3 pM | IC50 (read off the curve) (hAng2 [12]): 6 pM | IC50 (read off the curve) [13]: 30 pM | IC50 (read off the curve) [14]: 4 pM | IC50 (read off the curve) [15]: 10 pM | IC50 (read off the curve) (mAng2 [16]): 3 pM | IC50 (read off the curve) [17]: 3 pM | IC50 (read off the curve) (hAng2 [18]): 7 pM | IC50 (read off the curve), hAng2 mediated HUVEC survival (hAng2 [19]): 1000 pM | IC50 (read off the curve) (hAng2 [20]): 3 pM

ALB11 (VHH)
Kd [21]: 51000 pM | koff [21]: 0.03 s⁻¹ | Kd [22]: 4000 pM | koff [22]: 0.0019 s⁻¹ | Kd [23]: 4000 pM | Kd [24]: 49000 pM | koff [24]: 0.032 s⁻¹ | Kd [25]: 4000 pM | koff [25]: 0.0018 s⁻¹ | Kd [26]: 4000 pM | koff [26]: 0.0016 s⁻¹
